The source of these data is paper PMC4041422, “Rapid kinetics of iron responsive element (IRE) RNA/iron regulatory protein 1 and IRE-RNA/eIF4F complexes respond differently to metal ions”.

Conditions in all cases: protein: recombinant; tags: Ni-chelate purified; hairpin with mid-helix bulge C and hexaloop
Data set [1] concerns the target T1, IRP1 (iron regulatory protein 1) (rabbit, UniProt Q01059 1-889).
T1 sequence: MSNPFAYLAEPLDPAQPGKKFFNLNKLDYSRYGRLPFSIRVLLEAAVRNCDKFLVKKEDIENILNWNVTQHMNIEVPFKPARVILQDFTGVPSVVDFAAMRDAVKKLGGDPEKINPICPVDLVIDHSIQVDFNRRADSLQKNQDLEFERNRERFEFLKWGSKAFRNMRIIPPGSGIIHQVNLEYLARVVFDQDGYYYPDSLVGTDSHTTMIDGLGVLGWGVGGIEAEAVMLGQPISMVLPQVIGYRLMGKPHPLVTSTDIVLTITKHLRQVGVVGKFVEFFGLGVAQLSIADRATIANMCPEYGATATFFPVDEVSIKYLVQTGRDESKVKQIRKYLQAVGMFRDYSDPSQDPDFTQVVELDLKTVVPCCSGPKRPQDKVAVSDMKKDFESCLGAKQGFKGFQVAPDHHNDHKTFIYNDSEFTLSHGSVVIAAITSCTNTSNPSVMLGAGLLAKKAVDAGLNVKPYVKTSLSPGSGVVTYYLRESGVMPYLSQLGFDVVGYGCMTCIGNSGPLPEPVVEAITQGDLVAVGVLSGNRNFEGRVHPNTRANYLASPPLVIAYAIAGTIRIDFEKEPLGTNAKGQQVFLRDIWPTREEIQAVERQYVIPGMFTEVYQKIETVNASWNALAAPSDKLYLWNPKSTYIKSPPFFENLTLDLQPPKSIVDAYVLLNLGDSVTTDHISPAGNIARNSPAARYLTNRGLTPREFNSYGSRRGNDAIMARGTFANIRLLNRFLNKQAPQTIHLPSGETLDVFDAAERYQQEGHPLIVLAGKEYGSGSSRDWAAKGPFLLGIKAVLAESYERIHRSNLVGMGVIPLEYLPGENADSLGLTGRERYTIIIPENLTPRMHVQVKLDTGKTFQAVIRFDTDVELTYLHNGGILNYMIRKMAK
The data set is described as follows: stopped-flow fluorescence anisotropy (koff/kon); 5 uM Mn2+; kon 176, koff 9.7; 40 mM HEPES pH 7.2, 100 mM KCl, 1 mM MgCl2 (Methods; not listed in the Figure 2 legend), 5% glycerol, 2% 2-mercaptoethanol, 25 C; RNA 50 nM with IRP1 0.05-1 uM; eIF4F 0.1 uM with RNA 0.1-0.5 uM. A general note: Fluorescence polarisation rises when a labelled molecule tumbles more slowly, as on binding a larger partner.

Data set [2] deals with T1, IRP1 (iron regulatory protein 1). Description: stopped-flow fluorescence anisotropy (koff/kon); 150 mM KCl; kon 209, koff 6.3; 40 mM HEPES pH 7.2, 100 mM KCl, 1 mM MgCl2 (Methods; not listed in the Figure 2 legend), 5% glycerol, 2% 2-mercaptoethanol, 25 C; RNA 50 nM with IRP1 0.05-1 uM; eIF4F 0.1 uM with RNA 0.1-0.5 uM.
The target is the same in data set [3]. Description: stopped-flow fluorescence anisotropy (koff/kon); no Mn2+, 100 mM KCl; kon 400 uM-1 s-1, koff 6.2 s-1; 40 mM HEPES pH 7.2, 100 mM KCl, 1 mM MgCl2 (Methods; not listed in the Figure 2 legend), 5% glycerol, 2% 2-mercaptoethanol, 25 C; RNA 50 nM with IRP1 0.05-1 uM; eIF4F 0.1 uM with RNA 0.1-0.5 uM.
For data set [4] the target is unchanged. Description: stopped-flow fluorescence anisotropy (koff/kon); 150 mM KCl; kon 39, koff 7.4; 40 mM HEPES pH 7.2, 100 mM KCl, 1 mM MgCl2 (Methods; not listed in the Figure 2 legend), 5% glycerol, 2% 2-mercaptoethanol, 25 C; RNA 50 nM with IRP1 0.05-1 uM; eIF4F 0.1 uM with RNA 0.1-0.5 uM.
The target is the same in data set [5]. The data set is described as follows: stopped-flow fluorescence anisotropy (koff/kon); 5 uM Mn2+; kon 35.2, koff 7.6; 40 mM HEPES pH 7.2, 100 mM KCl, 1 mM MgCl2 (Methods; not listed in the Figure 2 legend), 5% glycerol, 2% 2-mercaptoethanol, 25 C; RNA 50 nM with IRP1 0.05-1 uM; eIF4F 0.1 uM with RNA 0.1-0.5 uM.
Data set [6] has the same target. The data set is described as follows: stopped-flow fluorescence anisotropy (koff/kon); no Mn2+, 100 mM KCl; kon 51.5 uM-1 s-1, koff 7.0 s-1; 40 mM HEPES pH 7.2, 100 mM KCl, 1 mM MgCl2 (Methods; not listed in the Figure 2 legend), 5% glycerol, 2% 2-mercaptoethanol, 25 C; RNA 50 nM with IRP1 0.05-1 uM; eIF4F 0.1 uM with RNA 0.1-0.5 uM.

The Kd is the concentration at which binding is half-saturated. Take GUUCUUGCUUCAACAGUGUUUGAACGGAAC (structured_RNA) [FRT IRE-RNA, fluorescein labeled (FIFRT IRE-RNA)]: the figures for the Kd in data set [1], in data set [2] and in data set [3] were 55 ± 2.7 nM, 30 ± 0.7 nM and 15.5 ± 0.5 nM, respectively.
Turning to CCUCAUCUUUGUCAGUGCACAAAAUGGCG (structured_RNA) [ACO2 IRE-RNA, fluorescein labeled (FIACO2 IRE-RNA)], the Kd was 190 ± 9 nM in data set [4], 217 ± 7.6 nM in data set [5] and 136 ± 2.9 nM in data set [6].
